This note sets out measurements from the DeepSol protein solubility set.

This series can be described thus: soluble on expression in E. coli; label from the status in PepcDB or PDB records.
For the sequence “MNNIRQLTKDEYPKAIELSWQVFTITGKEDFNNEGLEFFKSFIYNKKCINEIIFYGSFDNEALTGILGIKSNGKHISLFFIKPEYHRHGLGKKLFHYASTLHPSIETTVNSSTYAIPFYRSLGFAVVGEKQNYHGLCSTPMRRYHAVFVQKNKYTLRTWQTEDAHSLVQELNNKKIWDNCRNVFPHPYRLEHAETFIDLIQKKEGIHDFCIEVNGKAVGNIGFTPGTDVECFNAEVGYVIGEKYWNQGIVTDALQEAIYHYFTYTNTIRIFALVFEHNLPSMRVLEKAGFNKVGIMTKSIFKNGHFTNAHLFELLKNVLEHHHHHH”, the “soluble on expression in E. coli” value is “not soluble”.

Turning to “MSLKKYQLVIVGYGGMGSYHVTLASAADNLEVHGVFDILAEKREAAAQKGLKIYESYEAVLADEKVDAVLIATPNDSHKELAISALEAGKHVVCEKPVTMTSEDLLAIMDVAKRVNKHFMVHQNRRWDEDFLIIKEMFEQKTIGEMFHLESRVHGANGIPGDWRHLKAHGGGMVLDWGVHLLDQLLFLVDSNVKSVSANLSFALGDEVDDGFVTFITFENGITAQIEVGTTNFIKLPRWYVKGTEGTGIIHDWDLSGEIVKPTALAKTSEPTPIKAGQGLTKTMAPPSEEATNTLSLPAPAKLAPSFYNNFVDVLNNTSEPIVQNEEVYQVLKLIEAIFEAAETNRTVHSIEGHHHHHH”, the “soluble on expression in E. coli” value is reported as “soluble”.

On to “MGHHHHHHSHMCSWASYMTNSPTLIVMIGLPARGKTYVSKKLTRYLNWIGVPTKVFNLGVYRREAVKSYKSYDFFRHDNEEAMKIRKQCALVALEDVKAYLTEENGQIAVFDATNTTRERRDMILNFAEQNSFKVFFVESVCDDPDVIAANILEVKVSSPDYPERNRENVMEDFLKRIECYKVTYRPLDPDNYDKDLSFIKVINVGQRFLVNRVQDYIQSKIVYYLMNIHVQPRTIYLCRHGESEFN”, for which the “soluble on expression in E. coli” value is on record as “soluble”.

“MGRAELLEGKMSTQDPSDLWSRSDGEAELLQDLGWYHGNLTRHAAEALLLSNGCDGSYLLRDSNETTGLYSLSVRAKDSVKHFHVEYTGYSFKFGFNEFSSLKDFVKHFANQPLIGSETGTLMVLKHPYPRKVEEPSIYESVRVHTAMQTGRTEDDLVPTAPSLGTKEGYLTKQGGLVKTWKTRWFTLHRNELKYFKDQMSPEPIRILDLTECSAVQFDYSQERVNCFCLVFPFRTFYLCAKTGVEADEWIKILRWKLSQIRKQLNQGEGTIRSRSFIFK”: the “soluble on expression in E. coli” value was “soluble”.

Regarding “MGSDKIHHHHHHMQTVQALLTAAKVDSAESPYDTIHIKVLYPAKNTDSNLEKNWGMLPVDAAQAPFPVVIFFNGFNCDAQKYQWLGIELAQTGLVVVMFNWVGESLPGLVSFTPGFEIEKRKREFYGTVPTASALPVILTKLAQLQSAGILSGTLDLEKIILGGHSEGGRVAMENANPNFFPQVVASFAYGSHTAGAVMLGYKPNTILPLPDTLPRLVIGGTHDGVIANSSAHFGLNTKDATTPVIRTFQEAIMGGRENSYLLLLRGANHFSIVDIVDSTLALPFKDIPATQPQEHFRLLLATIIHLFIDAHVRHQPEAFQKLEQLLIVTNPLIQSFERK”, the “soluble on expression in E. coli” value was “not soluble”.

In the case of “MKYDLIIIGSGSVGAAAGYYATRAGLKVLMTDAHMPPHQQGSHHGDTRLIRHAYGEGEKYVPLVLRAQTLWDELSTHNEEPIFVRSGVVNLGPADSAFLANVARSAQQWQLNVERLDATALMTRWPEIRVPDNYIGLFEADSGFLRSELAITTWLRLAREAGCAQLFNSPVSHIHHDDNGVTIETSEGCYHASKALISAGTWVKALVPELPVQPVRKVFAWFKADGRYSTKNRFPAFTGEMPNGDQYYGFPAENDELKIGKHNGGQLIQAPEERKPFAAVASDGAEAFPFLRNVLPGIGGCLHGAACTYDNSPDEDFIIDTLPGHENTLVITGLSGHGFKFAPVLGEIAADFALGKTPSFDLTPFRLSRFSQ”, the “soluble on expression in E. coli” value was “not soluble”.

With “MRVRNIQGEDYVKIYSVLNDWWGGRDMAVMLPKLFFIHFQETSFIIEEEGETLGFLCGFFSQTHKEEAYVHFIGVNPKYRRRGIASTLYSYFFDVARANNRKVVKAITSPVNKKSIQFHREIGFQIEAGDDEIEGVSVHTNYDGNGGSRVLFLKNV”, the “soluble on expression in E. coli” value was “not soluble”.

As for “MDLFPDEVYVFTPKGHIMELPKGATPVDFAYTVHSGVGNSCVAAKVNRRLVPLSIPLSNGQTVEIITAPGAHPNPAWLEHHHHHH”, the “soluble on expression in E. coli” value is listed as “not soluble”.
